This assay relates to mutant form of α-Gal A expressed in HEK-293 cells. The assay is described as follows: HEK assay (GLP HEK / Migalastat Amenability Assay): α-Gal A activity in lysates of transiently transfected HEK-293 cells incubated with or without 10 μM migalastat. The note with it: for Absolute increase (% WT): 10 μM migalastat versus baseline; for Relative increase: 10 μM migalastat α-Gal A activity relative to baseline; for 10 μM migalastat α-Gal A activity (% WT): 5 days; for 10 μM migalastat α-Gal A activity (% WT) / Baseline α-Gal A activity (% WT): percentage of baseline wild-type α-Gal A activity; for 10 μM migalastat α-Gal A activity (% WT) / Baseline α-Gal A activity (% WT) / Baseline α-Gal A activity / 10 μM migalastat α-Gal A activity: mean ± SEM; for Baseline α-Gal A activity / 10 μM migalastat α-Gal A activity: lysates of HEK-293 cells transfected with the mutant form; for Baseline α-Gal A activity: incubated 5 days in the absence of migalastat; for 10 μM migalastat α-Gal A activity: incubated 5 days with 10 μM migalastat. It counts as cell-based, human. How it is done:
Such mutations or variants are also referred to herein as “HEK assay amenable” mutations or variants.
The α-Gal A activity is expressed as the nmoles of free 4-MU released per milligram of protein per hour (nmol/mg/hr).
In Table 7, values for the mean±standard error of the mean (SEM) were calculated. nmol/mg/hr indicates “nmoles of free 4-MU released per mg of protein per hour”. WT indicates “wild-type”. NC indicates “not calculable”. N/A indicates “not applicable”.

Changes are numbered by the printed parent chain. Names may count otherwise.

B1: D109A (protein)
chain: MQLRNPELHLGCALALRFLALVSWDIPGARALDNGLARTPTMGWLHWERFMCNLDCQEEPDSCISEKLFMEMAELMVSEGWKDAGYEYLCIDDCWMAPQRDSEGRLQAAPQRFPHGIRQLANYVHSKGLKLGIYADVGNKTCAGFPGSFGYYDIDAQTFADWGVDLLKFDGCYCDSLENLADGYKHMSLALNRTGRSIVYSCEWPLYMWPFQKPNYTEIRQYCNHWRNFADIDDSWKSIKSILDWTSFNQERIVDVAGPGGWNDPDMLVIGNFGLSWNQQVTQMALWAIMAAPLFMSNDLRHISPQAKALLQDKDVIAINQDPLGKQGYQLRQGDNFEVWERPLSGLAWAVAMINRQEIGGPRSYTIAVASLGKGVACNPACFITQLLPVKRKLGFYEWTSRLRSHINPTGTVLLQLENTMQMSLKDLL
As for B1, the “Absolute increase (% WT)” value came out at 20.4 % WT, the Relative increase stood at 2.2, the “10 μM migalastat α-Gal A activity (% WT)” value came to 38 ± 3.7 % WT and the “Baseline α-Gal A activity” value was 6345 ± 1034 nmol/mg/h. Also, the “10 μM migalastat α-Gal A activity” value is 13742 ± 1780 nmol/mg/h. Besides, the “Baseline α-Gal A activity (% WT)” value (absence of migalastat) stood at 17.5 ± 2.2 % WT.

B2: D109E (protein)
chain: B1 chain with A109E
B2: the “Absolute increase (% WT)” value amounted to 9.3 % WT, the Relative increase came to 1.2, the “10 μM migalastat α-Gal A activity (% WT)” value is given as 50.6 ± 3.6 % WT and the “Baseline α-Gal A activity” value was determined as 13839 ± 1179 nmol/mg/h. Moreover, the “10 μM migalastat α-Gal A activity” value came to 16926 ± 1156 nmol/mg/h. In addition, the “Baseline α-Gal A activity (% WT)” value (absence of migalastat) was 41.3 ± 3.4 % WT.

B3: D109N (protein)
chain: B1 chain with A109N
On to B3, for which the “Absolute increase (% WT)” value worked out at 36.5 % WT, the Relative increase is given as 8.4, the “10 μM migalastat α-Gal A activity (% WT)” value worked out at 41.5 ± 2.8 % WT and the “Baseline α-Gal A activity” value was determined as 1475 ± 83 nmol/mg/h. In addition, the “10 μM migalastat α-Gal A activity” value was 12358 ± 973 nmol/mg/h. Further, the “Baseline α-Gal A activity (% WT)” value (absence of migalastat) is 5 ± 0.3 % WT.

B4: F113Y (protein)
chain: B1 chain with A109D, F113Y
On to B4, for which the “Absolute increase (% WT)” value came out at 4.4 % WT, the “10 μM migalastat α-Gal A activity (% WT)” value is listed as 4.4 ± 0.3 % WT and the “10 μM migalastat α-Gal A activity” value stood at 1328 ± 79 nmol/mg/h. For the same molecule, the “Baseline α-Gal A activity (nmol/mg/hr)” value (absence of migalastat, mean activity below the limit of detection (<142 nmol/mg/hr)) is recorded as “BLD (“BLD” indicates that the mean α-Gal A activity was below the limit of detection (<142 nmol/mg/hr))”.

B5: D109Y (protein)
chain: B1 chain with A109Y
On to B5, for which the “Absolute increase (% WT)” value is recorded as 7.5 % WT, the Relative increase is 11.9, the “10 μM migalastat α-Gal A activity (% WT)” value came out at 8.2 ± 1.1 % WT and the “Baseline α-Gal A activity” value was 212 ± 30 nmol/mg/h. Also, the “10 μM migalastat α-Gal A activity” value was found to be 2530 ± 415 nmol/mg/h. Also, the “Baseline α-Gal A activity (% WT)” value (absence of migalastat) was determined as 0.7 ± 0.1 % WT.

B6: P114L (protein)
chain: B1 chain with A109D, P114L
On to B6, for which the “Absolute increase (% WT)” value is given as 5.4 % WT, the Relative increase is listed as 1.3, the “10 μM migalastat α-Gal A activity (% WT)” value is listed as 23.7 ± 1.3 % WT and the “Baseline α-Gal A activity” value came to 6229 ± 901 nmol/mg/h. In addition, the “10 μM migalastat α-Gal A activity” value turned out to be 7973 ± 626 nmol/mg/h. In addition, the “Baseline α-Gal A activity (% WT)” value (absence of migalastat) amounted to 18.3 ± 2.1 % WT.

B7: I117M (protein)
chain: B1 chain with A109D, I117M
B7: the “Absolute increase (% WT)” value is reported as 29.4 % WT, the Relative increase turned out to be 1.6, the “10 μM migalastat α-Gal A activity (% WT)” value came to 83.5 ± 3.6 % WT and the “Baseline α-Gal A activity” value is 20226 ± 1373 nmol/mg/h. Also, the “10 μM migalastat α-Gal A activity” value amounted to 31280 ± 1153 nmol/mg/h. The “Baseline α-Gal A activity (% WT)” value (absence of migalastat) worked out at 54.2 ± 3.9 % WT.

B8: G116R (protein)
chain: B1 chain with A109D, G116R
For the molecule B8, the “Absolute increase (% WT)” value is recorded as 9.9 % WT, the Relative increase worked out at 2.7, the “10 μM migalastat α-Gal A activity (% WT)” value was 15.4 ± 1.5 % WT and the “Baseline α-Gal A activity” value was 1922 ± 143 nmol/mg/h. The “10 μM migalastat α-Gal A activity” value was 5251 ± 464 nmol/mg/h. Also, the “Baseline α-Gal A activity (% WT)” value (absence of migalastat) is recorded as 5.4 ± 0.3 % WT.

B9: D109H (protein)
chain: B1 chain with A109H
Turning to B9, the “Absolute increase (% WT)” value amounted to 30.0 % WT, the Relative increase is reported as 2.2, the “10 μM migalastat α-Gal A activity (% WT)” value was found to be 54.6 ± 3.5 % WT and the “Baseline α-Gal A activity” value amounted to 7540 ± 684 nmol/mg/h. In addition, the “10 μM migalastat α-Gal A activity” value was found to be 16483 ± 1317 nmol/mg/h. Moreover, the “Baseline α-Gal A activity (% WT)” value (absence of migalastat) is reported as 24.6 ± 1.7 % WT.

B10: H115N (protein)
chain: B1 chain with A109D, H115N
Regarding B10, the “Absolute increase (% WT)” value is 30.1 % WT, the Relative increase is 1.7, the “10 μM migalastat α-Gal A activity (% WT)” value turned out to be 75 ± 2.5 % WT and the “Baseline α-Gal A activity” value amounted to 13745 ± 890 nmol/mg/h. In addition, the “10 μM migalastat α-Gal A activity” value was found to be 23018 ± 1098 nmol/mg/h. Besides, the “Baseline α-Gal A activity (% WT)” value (absence of migalastat) worked out at 44.9 ± 2.5 % WT.

B11: H115D (protein)
chain: B1 chain with A109D, H115D
Turning to B11, the “Absolute increase (% WT)” value stood at 14.1 % WT, the Relative increase is on record as 1.5, the “10 μM migalastat α-Gal A activity (% WT)” value came to 44.8 ± 3 % WT and the “Baseline α-Gal A activity” value is 10284 ± 1141 nmol/mg/h. The “10 μM migalastat α-Gal A activity” value was 15258 ± 1412 nmol/mg/h. Also, the “Baseline α-Gal A activity (% WT)” value (absence of migalastat) came to 30.7 ± 2.9 % WT.

B12: P110T (protein)
chain: B1 chain with A109D, P110T
As to B12, the “Absolute increase (% WT)” value is 18.6 % WT, the Relative increase is listed as 1.3, the “10 μM migalastat α-Gal A activity (% WT)” value is recorded as 81.2 ± 6.5 % WT and the “Baseline α-Gal A activity” value was 20474 ± 1528 nmol/mg/h. The “10 μM migalastat α-Gal A activity” value amounted to 26745 ± 1678 nmol/mg/h. In addition, the “Baseline α-Gal A activity (% WT)” value (absence of migalastat) worked out at 62.6 ± 5.9 % WT.

B13: F113V (protein)
chain: B1 chain with A109D, F113V
Turning to B13, the “Absolute increase (% WT)” value came out at 9.2 % WT, the Relative increase worked out at 10.6, the “10 μM migalastat α-Gal A activity (% WT)” value is 10.3 ± 1 % WT and the “Baseline α-Gal A activity” value was 341 ± 41 nmol/mg/h. The “10 μM migalastat α-Gal A activity” value is 3614 ± 596 nmol/mg/h. Further, the “Baseline α-Gal A activity (% WT)” value (absence of migalastat) came out at 1.1 ± 0.1 % WT.

Values taken from US11833164B2, “Methods of treating Fabry disease in patients having a mutation in the GLA gene” (Amicus Therapeutics, Inc., priority 2019, dated 2023).
